Legend:
CCR6 (human) = molecular target: T1, CCR6 (human) (UniProt P51684); experiment: cell-based or functional assay
T1 sequence (looked up): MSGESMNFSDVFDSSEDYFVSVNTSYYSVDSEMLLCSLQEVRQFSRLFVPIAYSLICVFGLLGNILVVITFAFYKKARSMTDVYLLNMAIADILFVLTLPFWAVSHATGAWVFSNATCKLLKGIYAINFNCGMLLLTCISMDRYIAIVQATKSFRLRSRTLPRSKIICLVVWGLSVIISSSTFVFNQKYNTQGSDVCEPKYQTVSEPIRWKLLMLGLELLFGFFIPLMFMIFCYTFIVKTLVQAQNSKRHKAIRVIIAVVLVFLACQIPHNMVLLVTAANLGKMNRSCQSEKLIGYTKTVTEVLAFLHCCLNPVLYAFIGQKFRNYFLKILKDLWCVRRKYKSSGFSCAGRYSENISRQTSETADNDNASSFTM

CCR7 (human) = CCR7 (human) (UniProt P32248); experiment: cell-based or functional assay
Sequence of UniProt P32248 (P32248 25-378): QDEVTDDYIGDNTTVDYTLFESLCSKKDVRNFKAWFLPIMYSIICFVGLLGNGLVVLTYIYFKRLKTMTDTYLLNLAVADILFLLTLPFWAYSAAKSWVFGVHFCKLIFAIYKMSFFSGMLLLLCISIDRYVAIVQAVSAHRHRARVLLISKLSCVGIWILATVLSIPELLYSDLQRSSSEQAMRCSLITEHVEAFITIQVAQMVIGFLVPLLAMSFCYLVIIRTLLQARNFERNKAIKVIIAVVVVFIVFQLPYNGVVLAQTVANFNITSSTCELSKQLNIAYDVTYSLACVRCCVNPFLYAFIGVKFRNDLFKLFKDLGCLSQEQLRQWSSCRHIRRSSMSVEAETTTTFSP

| Substance | Ca2+ flux (Indo-1 fluorimetry) in immature CD34+-derived DC; concentration giving the maximal flux (CCR6 (human)) | chemotaxis (Boyden microchamber) of DC precursors (CD1a-CD86-); concentration at which the response is detected (CCR6 (human)) | chemotaxis (Boyden microchamber) of immature DC (CD1a+CD86-); concentration needed to attract the cells (CCR6 (human)) | Ca2+ flux (Indo-1 fluorimetry) in mature CD34+-derived DC; concentration giving the maximal flux (CCR7 (human)) | chemotaxis (Boyden microchamber) of mature DC (CD1a+CD86+); concentration needed to recruit the cells (CCR7 (human)) | chemotaxis of CD40L-activated CD34+-derived DC; concentration required at 48 h (CCR7 (human)) |
| --- | --- | --- | --- | --- | --- | --- |
| Recombinant human MIP-3α (from UniProt P78556 27-96) (ligand) | 30 ng/mL | 1 to 10 ng/mL | > 300 ng/mL | – | – | – |
| Recombinant human MIP-3β (from UniProt Q99731 22-98) (ligand) | – | – | – | 30 ng/mL | 300 ng/mL | 100 to 300 ng/mL |
